{
  "source": "patent US20230272446A1",
  "about": "(University of Washington, published 2023)",
  "biological_target": "the molecule itself",
  "assay": "analytical size exclusion chromatography with multi-angle light scattering (SEC-MALS); self-association (homodimer)",
  "data": [
    {"protein": "DHR76 (designed helical repeat protein 76) (other) MNPELEEWIRRAKEVAKEVEKVAQRAEEEGNPDLRDSAKELRRAVEEAIEEAKKQGNPELVEWVARAAKVAAEVIKVAIQAEKEGNRDLFRAALELVRAVIEAIEEAVKQGNPELVEWVARAAKVAAEVIKVAIQAEKEGNRDLFRAALELVRAVIEAIEEAVKQGNPELVERVARLAKKAAELIKRAIRAEKEGNRDERREALERVREVIERIEELVRQGGWLEHHHHHH", "values": [
      {"measurement": "binding result", "value": "binds"}
    ]},
    {"protein": "DHR49 (designed helical repeat protein 49) (other) MDSEEEQERIRRILKEARKSGTEESLRQAIEDVAQLAKKSQDSEVLEEAIRVILRIAKESGSEEALRQAIRAVAEIAKEAQDSEVLEEAIRVILRIAKESGSEEALRQAIRAVAEIAKEAQDPRVLEEAIRVIRQIAEESGSEEARRQAERAEEEIRRRAQGWLEHHHHHH", "values": [
      {"measurement": "binding result", "value": "binds"}
    ]}
  ]
}
